Measurements taken from the supplement of paper PMC7877785.
± gives the uncertainty stated by the source.

Assay: self-splicing fitness, log relative to wild type (ln ratio); higher = more splicing; Tetrahymena group I intron in knt gene, E. coli kanamycin selection, DiMSum; sequences stand for … in CUCUCU…GGAGGGAAAAGUUAUCAGGCAUGCACCUGGUAGCUAGUCUUUAAACCAAUAGAUUGCAUCGGUUUAAAAGGCAAGACCGUCAAAUUGCGGGAAAGGGGUCAACAGCCGUUCAGUACCAAGUCUCAGGGGAAACUUUGAGAUGGCCUUGCAAAGGGUAUGGUAAUAAGCUGACGGACAUGGUCCUAACCACGCAGCCAAGUCCUAAGUCAACAGAUCUUCUGUUGAUAUGGAUGCAGUUCACAGACUAAAUGUCGGUCGGGGAAGAUGUAUUCUUCUCAUAAGAUAUAGUCGGACCUCUCCUUAAUGGGAGCUAGCGGAUGAAGUGAUGCAACACUGGAGCCGCUGGGAACUAAUUUGUAUGCGAAAGUAUAUUGAUUAGUUUUGGAGUACUCGUGGUCG
Method in brief: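 A randomised library covering all eight P1ex-region intron nucleotides was built with the intron in the knt kanamycin-resistance gene on pET-22b(+) and held in E. coli BL21(DE3). Cells were grown overnight at 37°C or 30°C on LB agar, with or without 25 μg/mL kanamycin, plus 100 μg/mL carbenicillin, 50 μM IPTG and 0.2% rhamnose, and pooled colonies were amplicon-sequenced on an Illumina HiSeq 2500. DiMSum fitness is the error-weighted combination of wild-type-normalised replicate fold changes, kanamycin versus none.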

Sequence	self-splicing fitness (ln) (30 °C)	self-splicing fitness (ln) (37 °C)
GUUGAGCAAUAUUACGUCAG	-2.67 ± 0.17	-2.86 ± 0.31
GUUGAGCAAUAUUACGUCAU	-2.26 ± 0.21	-2.44 ± 0.38
GUUGAGCAAUAUUACGUCCU	-1.27 ± 0.17	-1.47 ± 0.21
GUUGAGCAAUAUUACGUUCC	-1.13 ± 0.26	-1.31 ± 0.34
GUUUAGCAAUAUUACGAAAU	-1.54 ± 0.11	-1.85 ± 0.19
GUUUAGCAAUAUUACGACAC	-0.84 ± 0.091	0.0746 ± 0.14
GUUUAGCAAUAUUACGACAG	-3.68 ± 0.32	-2.43 ± 0.34
GUUUAGCAAUAUUACGAUAG	-3.5 ± 0.32	-1.88 ± 0.31
GUUUAGCAAUAUUACGCCAC	-1.72 ± 0.46	
GUUUAGCAAUAUUACGCUGU	-1.52 ± 0.12	-2 ± 0.14
GUUUAGCAAUAUUACGGAUU	-1.48 ± 0.097	-0.737 ± 0.12
GUUUAGCAAUAUUACGGGUG	-2.84 ± 0.21	-1.53 ± 0.17
GUUUAGCAAUAUUACGUACU	-0.0508 ± 0.3	0.333 ± 0.33
GUUUAGCAAUAUUACGUAGC	-1.61 ± 0.2	-0.831 ± 0.17
GUUUAGCAAUAUUACGUAGU	-1.84 ± 0.14	-0.706 ± 0.14
GUUUAGCAAUAUUACGUCCA	-1.53 ± 0.24	-1.18 ± 0.28
GUUUAGCAAUAUUACGUGAA	-1.35 ± 0.12	-2.04 ± 0.18
GUUUAGCAAUAUUACGUUCU	-1.41 ± 0.14	-0.628 ± 0.17
GUUUAGCAAUAUUACGUUGC	-3.73 ± 0.27	-2.59 ± 0.34
UAAAAGCAAUAUUACGACCG	0.0682 ± 0.1	0.499 ± 0.15
UAAAAGCAAUAUUACGACUG	0.248 ± 0.1	-0.671 ± 0.12
UAAAAGCAAUAUUACGAGCG	-0.13 ± 0.099	-0.191 ± 0.11
UAAAAGCAAUAUUACGAUCC	-2.13 ± 0.34	-2.05 ± 0.27
UAAAAGCAAUAUUACGAUCU	-0.413 ± 0.079	0.0961 ± 0.099
UAAAAGCAAUAUUACGCACA	-0.0521 ± 0.12	0.516 ± 0.16

Sequence	self-splicing fitness (ln) (30 °C)	self-splicing fitness (ln) (37 °C)
UAAAAGCAAUAUUACGCAGG	-1.55 ± 0.12	-1.2 ± 0.11
UAAAAGCAAUAUUACGCCUG	-0.364 ± 0.088	0.229 ± 0.12
UAAAAGCAAUAUUACGCGAG	-0.897 ± 0.075	-0.186 ± 0.095
UAAAAGCAAUAUUACGGAUC	-2.28 ± 0.29	-1.81 ± 0.24
UAAAAGCAAUAUUACGGCAG	-0.504 ± 0.079	-0.106 ± 0.097
UAAAAGCAAUAUUACGGCCC	-2.11 ± 0.34	-1.28 ± 0.33
UAAAAGCAAUAUUACGGUCA	0.0761 ± 0.086	0.333 ± 0.087
UAAAAGCAAUAUUACGGUUG	-1.53 ± 0.075	-0.701 ± 0.096
UAAAAGCAAUAUUACGUAGA	-2.7 ± 0.12	-1.45 ± 0.14
UAAAAGCAAUAUUACGUCCA	0.0284 ± 0.091	-0.623 ± 0.12
UAAAAGCAAUAUUACGUGAU	-2.46 ± 0.11	-2.04 ± 0.16
UAAAAGCAAUAUUACGUGUA	-1.86 ± 0.055	-0.743 ± 0.056
UAAAAGCAAUAUUACGUGUG	-1.07 ± 0.052	-0.712 ± 0.069
UAAAAGCAAUAUUACGUUGU	-3.71 ± 0.14	-1.96 ± 0.14
UAACAGCAAUAUUACGAAAC	-4.62 ± 0.38	-2.75 ± 0.36
UAACAGCAAUAUUACGAACU	-0.722 ± 0.11	-0.651 ± 0.15
UAACAGCAAUAUUACGACCA	-0.808 ± 0.08	0.224 ± 0.11
UAACAGCAAUAUUACGACUA	-0.142 ± 0.049	-0.212 ± 0.057
UAACAGCAAUAUUACGAUCG	-0.667 ± 0.07	-0.00548 ± 0.098
UAACAGCAAUAUUACGAUUC	-1.68 ± 0.1	-1.01 ± 0.12
UAACAGCAAUAUUACGCACU	-1.26 ± 0.06	0.231 ± 0.087
UAACAGCAAUAUUACGCAGA	-2.78 ± 0.14	-1.47 ± 0.087
UAACAGCAAUAUUACGCAUC	-4.63 ± 0.22	-2.51 ± 0.17
UAACAGCAAUAUUACGCCAU	-3.93 ± 0.22	-2.11 ± 0.17
UAACAGCAAUAUUACGCCGG	-0.84 ± 0.067	-0.697 ± 0.091

Sequence	self-splicing fitness (ln) (30 °C)	self-splicing fitness (ln) (37 °C)
UAACAGCAAUAUUACGCCUU	-1.48 ± 0.074	-0.968 ± 0.094
UAACAGCAAUAUUACGCGAC	-3.97 ± 0.29	-2.05 ± 0.16
UAACAGCAAUAUUACGCGAG	-0.783 ± 0.052	-0.508 ± 0.066
UAACAGCAAUAUUACGCGAU	-3.97 ± 0.32	-2.36 ± 0.23
UAACAGCAAUAUUACGCUUU	-3.43 ± 0.14	-1.82 ± 0.13
UAACAGCAAUAUUACGGAUA	-0.969 ± 0.088	-0.486 ± 0.1
UAACAGCAAUAUUACGGCGA	-0.267 ± 0.077	-0.198 ± 0.08
UAACAGCAAUAUUACGGCUC	-1.77 ± 0.1	-0.836 ± 0.14
UAACAGCAAUAUUACGGGAG	-2.3 ± 0.1	-1.62 ± 0.096
UAACAGCAAUAUUACGGGGG	-3.25 ± 0.27	-1.9 ± 0.17
UAACAGCAAUAUUACGGUCU	-1.5 ± 0.068	-0.783 ± 0.075
UAACAGCAAUAUUACGUGGU	-2.87 ± 0.12	-2.93 ± 0.2
UAACAGCAAUAUUACGUUAA	-3.25 ± 0.2	-1.6 ± 0.12
UAAGAGCAAUAUUACGAAAC		-2.99 ± 0.37
UAAGAGCAAUAUUACGACAG	-3.17 ± 0.25	-2.34 ± 0.23
UAAGAGCAAUAUUACGACUU	-2.79 ± 0.18	-0.528 ± 0.15
UAAGAGCAAUAUUACGAGGU	-3.48 ± 0.23	-2.56 ± 0.27
UAAGAGCAAUAUUACGAUUA	-0.804 ± 0.1	0.2 ± 0.1
UAAGAGCAAUAUUACGCCCA	-2.62 ± 0.26	-2.09 ± 0.41
UAAGAGCAAUAUUACGCCCU	-3.1 ± 0.31	-2.01 ± 0.41
UAAGAGCAAUAUUACGCCGG	-2.97 ± 0.31	-1.72 ± 0.26
UAAGAGCAAUAUUACGCGGU	-3.3 ± 0.3	-2.15 ± 0.34
UAAGAGCAAUAUUACGGAUC	-3.68 ± 0.46	-1.64 ± 0.31
UAAGAGCAAUAUUACGGCAA	-2.23 ± 0.18	-2.03 ± 0.14
UAAGAGCAAUAUUACGGCAU	-2.3 ± 0.39	-1 ± 0.3

Sequence	self-splicing fitness (ln) (30 °C)	self-splicing fitness (ln) (37 °C)
UAAGAGCAAUAUUACGGGAG	-3.33 ± 0.24	-1.83 ± 0.19
UAAGAGCAAUAUUACGGGGU	-2.67 ± 0.19	-1.44 ± 0.49
UAAGAGCAAUAUUACGUAAU	-3.14 ± 0.15	-3.17 ± 0.29
UAAGAGCAAUAUUACGUACG	-1.42 ± 0.16	-1.73 ± 0.17
UAAGAGCAAUAUUACGUACU	-2.79 ± 0.25	-0.993 ± 0.2
UAAGAGCAAUAUUACGUCGA	-3.95 ± 0.3	-1.74 ± 0.17
UAAGAGCAAUAUUACGUUCC		-1.98 ± 0.39
UAAUAGCAAUAUUACGAAGC		-1.83 ± 0.33
UAAUAGCAAUAUUACGACGU	-3.74 ± 0.33	-1.76 ± 0.18
UAAUAGCAAUAUUACGAUAU	-3.99 ± 0.47	-1.52 ± 0.25
UAAUAGCAAUAUUACGAUCA	-0.744 ± 0.085	0.387 ± 0.1
UAAUAGCAAUAUUACGCAAC	-2.64 ± 0.4	-1.73 ± 0.37
UAAUAGCAAUAUUACGCGCU	0.173 ± 0.2	-0.565 ± 0.18
UAAUAGCAAUAUUACGCGGA		-1.82 ± 0.19
UAAUAGCAAUAUUACGCGUG	-1.37 ± 0.1	-0.125 ± 0.12
UAAUAGCAAUAUUACGCUCU	-1.03 ± 0.14	-0.42 ± 0.18
UAAUAGCAAUAUUACGGAAG	-3.02 ± 0.21	-0.76 ± 0.16
UAAUAGCAAUAUUACGGACA	-1.12 ± 0.17	-0.393 ± 0.16
UAAUAGCAAUAUUACGGACC		-1.42 ± 0.29
UAAUAGCAAUAUUACGGAUG	-1.58 ± 0.08	-0.737 ± 0.087
UAAUAGCAAUAUUACGGCAA	-1.99 ± 0.14	-0.69 ± 0.12
UAAUAGCAAUAUUACGGCAG	-1.08 ± 0.1	-0.425 ± 0.13
